Results: article PMC4019489 (Molecular Biology of the Cell, 2014)

Biological target: the molecule itself
Assay: SEC

B1: soluble, C-terminally His-tagged extracellular domain of WT JAM-A (junctional adhesion molecule-A) (domain or fragment, UniProt Q9Y624 28-238, looked up)
chain: SVTVHSSEPEVRIPENNPVKLSCAYSGFSSPRVEWKFDQGDTTRLVCYNNKITASYEDRVTFLPTGITFKSVTREDTGTYTCMVSEEGGNSYGEVKVKLIVLVPPSKPTVNIPSSATIGNRAVLTCSEQDGSPPSEYTWFKDGIVMPTNPKSTRAFSNSSYVLNPTTGELVFDPLSASDTGEYSCEARNGYGTPMTSNAVRMEAVERNVGV
How did the “stoichiometry N” value turn out when B1 was run?
The value was 2.
